In test [1] the target is Aβ40 monomer (wild-type amyloid β peptide 1-40) (Artificial).
For test [2], the target named is soluble cross-linked β-amyloid protein species (CAPS) prepared from Aβ40 (Artificial). The experiment in a line: EuLISA, plate-immobilised CAPS.
Test [3] deals with LC (Jto) fibrils, formed from recombinant Vλ6 Jto. As to the kind of experiment: EuLISA, plate-immobilised LC fibrils.
Test [4] concerns the target Aβ40 fibrils (Artificial). As to the kind of experiment: EuLISA, plate-immobilised Aβ40 fibrils.
The target in test [5] is Aβ40 monomer (wild-type amyloid β peptide 1-40) (Artificial). The experiment in a line: EuLISA, plate-immobilised wild-type Aβ40 monomer.
The target of test [6] is F19P Aβ40 monomer (Artificial). As to the kind of experiment: EuLISA, plate-immobilised F19P Aβ40 monomer (value in brackets).

This passage reports formation of SDS stable cross-linked Aβ40 oligomers (SDS PAGE) and EC50 results from US20090246191A1.

“ImmunoPure Horseradish peroxidase (HRP) (from UniProt P00433) (enzyme)”: the formation of SDS stable cross-linked Aβ40 oligomers (SDS PAGE) in test [1] came to 65%.

For the substance “unfractionated IGIV (Gammagard Liquid, human immune globulin intravenous) (polyclonal serum or antibody)”, the EC50 in test [2] was determined as 631 nM; in test [3], 1510 nM; in test [4] it was 1080 nM; in test [5], 861 nM; in test [6], 3670 nM.

One may read the EC50 as the concentration giving half of the maximal effect.
